Results published in patent publication US20150369821A1 (Pieris, published 2015).

T1: non-modified Hepcidin-25 (human, not fully specified)
T1 construct: also called Hepc25; mature human hepcidin
T1 peptide: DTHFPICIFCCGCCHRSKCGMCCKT

B1: hepcidin-specific lipocalin mutein of SEQ ID NO: 10 (designed binder)
chain: QDSTSDLIPAPPLSKVPLQQNFQDNQFHGKWYVVGLAGNEILREDKDPMKMWATIYELKEDRSYNVTIVMFLAKKCEYLFQTFVPGSQPGEFTLGDIKSSPGRTSGLVRVVSTNYNQHAMVFFKVVWQNREVFWITLYGRTKELTPELKENFIRFSKSLGLPENHIVFPVPIDQCIDGF
notes: Mutein of human NGAL (lipocalin 2); also called hNGAL mutein
B2: hepcidin-specific lipocalin mutein of SEQ ID NO: 8 (designed binder)
chain: QDSTSDLIPAPPLSKVPLQQNFQDNQFHGKWYVVGLAGNEVLREDKDPMKMWATIYELKEDKSYNVTIVMPLAEKCEYLFQTFVPGSQPGEFTLGGIKSGPGRTSGLVRVVSTNYNQHAMVFFKVVWQNREVFWVTLYGRTKELTSELKENFIRFSKSLGLPENHIVFPVPIDQCIDG
notes: as for B1

Columns and labels:
non-modified Hepcidin-25 [1] = target: T1, non-modified Hepcidin-25; test: competition ELISA, non-modified Hepcidin-25 in solution (25 pM)
non-modified Hepcidin-25 [2] = target: T1, non-modified Hepcidin-25; test: cell-based or functional assay

Binder	IC50 (non-modified Hepcidin-25 [1]) [µM]	In Vitro Neutralization Activity Assay, IC50 [nM] (cell-based hepcidin-induced internalization of ferroportin-GFP) (non-modified Hepcidin-25 [2])
B1	0.0001	31
B2	0.00018	25
